The chains are these.
B1: VP16-JMY^469-558 (other)
chain: EKLQYAVSKETLQMMRAKEICLEQKKHALKEEMQSLQGGTEAIARLDQLESDYYDLQLQLYEVQFEILKCEELLLTAQLESIKRLISEKR
notes: Two-hybrid prey used in yeast and in U2OS cells; also called pVP16-JMY^469-558; JMY-VP16

In test [1] the target is G4-p300^611-1257 (yeast, UniProt P04386 1-147; Q09472 611-1257). The test is described as follows: cell-based or functional assay.
In test [2] the target is G4-p300^1572-2283 (yeast, UniProt P04386 1-147; Q09472 1572-2283). Nature of the test: cell-based or functional assay.
The target of test [3] is T1, G4-p300 from residue 1302 to 1572 (yeast, UniProt P04386 1-147; Q09472 1302-1572).
T1 construct: Mammalian two-hybrid bait; also called p300^302-1572 (as printed in the methods)
Nature of the test: mammalian two-hybrid assay, U2OS cells, pG5-luc reporter.

Test [4] has as its target B1. Nature of the test: yeast two-hybrid, β-galactosidase induction; prey VP16-JMY^469-558.

With B1, the “relative activity of luciferase to β-galactosidase (pG5-luc reporter, mammalian two-hybrid assay in U2OS cells)” value in test [1] amounted to 4 fold increase; in test [2], 5 fold increase. Besides, the binding result in test [3] was “no binding”.

B2: Lex-JMY^469-558 (other)
chain: EKLQYAVSKETLQMMRAKEICLEQKKHALKEEMQSLQGGTEAIARLDQLESDYYDLQLQLYEVQFEILKCEELLLTAQLESIKRLISEKR
notes: Yeast two-hybrid bait; also called pLex-JMY^469-558; not shown: LexA part of bait vector pLex (his)
Regarding B2, the binding result in test [4] is “binds”.

Source of the values: patent US20020028487A1 (UNIVERSITY COURT OF THE UNIVERSITY OF GLASGOW, published 2002).
